The values that follow come from US20150313990A1.

The target of experiment [1] is recombinant soluble gp120 (isolate YU2) (HIV-1 isolate YU2), P35961. Description: SPR; biotinylated pV2α (235 RU) on neutravidin-coated CM3 chip, gp120 YU2 in solution at 2, 4, 8 and 16 nM; koff-KD distribution model.
Experiment [2] deals with recombinant soluble CD4 (number of domains not stated), P01730. Put plainly: SPR; biotinylated pV2α (235 RU) on neutravidin-coated CM3 chip, recombinant soluble CD4 in solution; koff-KD distribution model.
Experiment [3] concerns the target HIV-1 BaL virions (virion-associated envelope gp120, stock grown in primary CD4+ T cells) (HIV-1 BaL). Description: cell-based or functional assay.

No end group written: not given here.

B1: biotinylated peptide pV2α (captured on neutravidin chip or biotin-captured in ELISA) (peptide)
peptide: KVQKEYALFYELDIVPID
modifications: not fully specified
Take B1: in experiment [1], the Kd amounted to 0.0009 µM and the off-rate constant (koff) came out at 6.4e-05 s⁻¹. For the same molecule, in experiment [2], the Kd amounted to 4000 µM and the dissociation rate constant (koff) stood at 0.013 s⁻¹.

B2: peptide pV2α-Tys (tyrosine-sulfated variant of peptide pV2α) (peptide)
peptide: KVQKEYALFYELDIVPID
modifications: not checked
Consider B2, for which the IC50 of inhibition of acute infection of primary human CD4+ T cells by HIV-1 BaL in experiment [3] came to 15 µM.
